Source: PMC6302171

Biological target: GFP-profilin-1 (UniProt P07737)
Experiment: co-immunoprecipitation, densitometric analysis of immunoblots
Settings: HEK293 cells; cell lysate (1 mg); three independent experiments; parent: est. 6.8; read off a plot

Sequence of GFP-profilin-1 (P07737 2-140): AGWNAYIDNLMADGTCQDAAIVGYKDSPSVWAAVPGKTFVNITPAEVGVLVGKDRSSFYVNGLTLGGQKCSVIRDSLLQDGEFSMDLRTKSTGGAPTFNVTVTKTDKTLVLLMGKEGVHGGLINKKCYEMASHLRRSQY
Sequence of 3×FLAG-CLIC4 WT, Q9Y696 C35A (Q9Y696 whole entry C35A): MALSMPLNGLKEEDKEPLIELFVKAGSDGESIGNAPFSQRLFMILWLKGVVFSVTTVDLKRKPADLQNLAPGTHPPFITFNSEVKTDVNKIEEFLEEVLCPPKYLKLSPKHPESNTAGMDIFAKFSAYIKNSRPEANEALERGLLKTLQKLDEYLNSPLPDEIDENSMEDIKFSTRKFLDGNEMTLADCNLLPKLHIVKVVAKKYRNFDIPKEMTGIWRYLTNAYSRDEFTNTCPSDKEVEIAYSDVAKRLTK

## 3×FLAG-CLIC4 WT, Q9Y696 C35A
  response: 2 A.U.
